Results reported in US20200317768A1 (published 2020).
Where a chain is given by its changes, count along the chain named.

T1: cynomolgus monkey FcγRIIa1 extracellular domain, C-terminal His-tag (cynomolgus monkey)
T1 construct: also called cyno FcγRIIa1; cynoFcgRIIa1; not shown: His-tag added to C-terminus
T1 chain: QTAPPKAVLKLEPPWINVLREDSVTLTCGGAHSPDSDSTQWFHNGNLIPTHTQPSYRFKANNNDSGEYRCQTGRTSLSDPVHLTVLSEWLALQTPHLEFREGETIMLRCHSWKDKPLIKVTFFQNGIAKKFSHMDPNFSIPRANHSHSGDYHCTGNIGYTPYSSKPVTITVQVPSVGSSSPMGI

T2: cynomolgus monkey FcγRIIa2 extracellular domain, C-terminal His-tag (cynomolgus monkey)
T2 construct: also called cyno FcγRIIa2; cynoFcgRIIa2; not shown: His-tag added to C-terminus
T2 chain: T1 chain with P95T, T121A, I127K, A128S, K130N, D135N, R142Q

T3: cynomolgus monkey FcγRIIa3 extracellular domain, C-terminal His-tag (cynomolgus monkey)
T3 construct: also called cyno FcγRIIa3; cynoFcgRIIa3; not shown: His-tag added to C-terminus
T3 chain: T1 chain with P95T, T121A, A128S, H133P, D135N

T4: cynomolgus monkey FcγRIIb extracellular domain, C-terminal His-tag (cynomolgus monkey)
T4 construct: also called cyno FcγRIIb; cynoFcγRIIb; not shown: His-tag added to C-terminus
T4 chain: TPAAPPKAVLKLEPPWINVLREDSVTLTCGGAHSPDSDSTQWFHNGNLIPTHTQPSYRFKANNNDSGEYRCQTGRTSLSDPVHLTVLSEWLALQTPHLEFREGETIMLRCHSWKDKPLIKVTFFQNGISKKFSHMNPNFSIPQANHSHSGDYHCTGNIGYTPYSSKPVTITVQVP

T5: human FcγRIIaH extracellular domain, C-terminal His-tag (human, UniProt P12318 34-217)
T5 construct: also called human FcγRIIa (type H); FcgRIIaH; not shown: His-tag added to C-terminus
T5 sequence: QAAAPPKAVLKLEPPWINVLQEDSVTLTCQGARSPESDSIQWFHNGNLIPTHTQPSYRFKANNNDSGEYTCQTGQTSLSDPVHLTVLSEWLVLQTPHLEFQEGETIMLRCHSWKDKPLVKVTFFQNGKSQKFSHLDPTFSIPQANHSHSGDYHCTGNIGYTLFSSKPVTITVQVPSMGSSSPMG

T6: human FcγRIIaR extracellular domain, C-terminal His-tag (human, UniProt P12318 34-217)
T6 construct: also called human FcγRIIa (type R); FcgRIIaR; not shown: His-tag added to C-terminus
T6 chain: T5 sequence with H134R

B1: M103205H795-MY311/M103202L889-SK1 (antibody, human IgG1, kappa)
heavy: QVTLKESGPVLVKPTETLTLTCTVSGIDLSHDDISWVRQAPGKGLEWVGIISYAGSTYYASWAKGRLTISKDTSKNQVVLTMTNMDPVDTATYYCARGVPAYSHGGDLWGQGTLVTVSSASTKGPSVFPLAPSSKSTSGGTAALGCLVKDYFPEPVTVSWNSGALTSGVHTFPAVLQSSGLYSLSSVVTVPSSSLGTQTYICNVNHKPSNTKVDKKVEPKSCDKTHTCPPCPAPELLTGPSVFLFPPKPKDTLMISRTPEVTCVVVDVSEEDPEVKFNWYVDGVEVHNAKTKPREELYNSTYRVVSVLTVLHQDWLNGKEYKCKVSNKALPKPIEKTISKAKGQPREPQVYTLPPSREEMTKNQVSLTCLVKGFYPSDIAVEWESNGQPENNYKTTPPVLDSDGSFFLYSKLTVDKSRWQQGNVFSCSVMHEALHNHYTQKSLSLSP
light: DIVMTQSPATLSLSPGERATLSCTSSQSVYHANWLSWFQQKPGQPPKLLIYWASTLAYGVPSRFSGSGSGTDFTLTISSLQPEDAATYYCAGGYGGGRYAFGQGTKVEIKRTVAAPSVFIFPPSDEQLKSGTASVVCLLNNFYPREAKVQWKVDNALQSGNSQESVTEQDSKDSTYSLSSTLTLSKADYEKHKVYACEVTHQGLSSPVTKSFNRGEC
B2: M103205H795-MY321/M103202L889-SK1 (antibody, human IgG1, kappa)
heavy: B1 heavy with T238H, E270D, L297Q, P398M
light: B1 light
B3: M103205H795-MY312/M103202L889-SK1 (antibody, human IgG1, kappa)
heavy: B1 heavy with L297Q, K328T, P398M
light: B1 light
B4: M103205H795-MY318/M103202L889-SK1 (antibody, human IgG1, kappa)
heavy: B1 heavy with T238L, L297Q, K328T, P398M
light: B1 light

Target: T1, cynomolgus monkey FcγRIIa1 …
Experiment: SPR (Biacore), KD of SG1 / KD of variant;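 note: relative to parent M103205H795-SG1 carrying the SG1 human heavy chain constant region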

KD fold (SG1 = 1) [fold] | Binder
1.4 | B1
1.4 | B2
2.3 | B3
0.4 | B4

Target: T2, cynomolgus monkey FcγRIIa2 …
Experiment: SPR (Biacore), KD of SG1 / KD of variant;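 note: relative to parent M103205H795-SG1 carrying the SG1 human heavy chain constant region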

KD fold (SG1 = 1) [fold] | Binder
1.5 | B1
2.3 | B2
3.4 | B3
0.7 | B4

Target: T3, cynomolgus monkey FcγRIIa3 …
Experiment: SPR (Biacore), KD of SG1 / KD of variant;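 note: relative to parent M103205H795-SG1 carrying the SG1 human heavy chain constant region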

KD fold (SG1 = 1) [fold] | Binder
2 | B1
3.9 | B2
4.6 | B3
0.5 | B4

Target: T4, cynomolgus monkey FcγRIIb extracellular …
Experiment: SPR (Biacore), KD of SG1 / KD of variant;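 note: relative to parent M103205H795-SG1 carrying the SG1 human heavy chain constant region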

KD fold (SG1 = 1) [fold] | Binder
2.3 | B1
2.8 | B2
4.5 | B3
0.8 | B4

Target: T7, cynomolgus monkey FcγRIIIaS extracellular domain, C-terminal His-tag (cynomolgus monkey, UniProt A3RFZ7 21-206 (rhesus entry))
T7 construct: also called cyno FcγRIIIaS; cynoFcγRIIIaS; not shown: His-tag added to C-terminus
Experiment: SPR (Biacore), KD of SG1 / KD of variant

T7 sequence (A3RFZ7 21-206): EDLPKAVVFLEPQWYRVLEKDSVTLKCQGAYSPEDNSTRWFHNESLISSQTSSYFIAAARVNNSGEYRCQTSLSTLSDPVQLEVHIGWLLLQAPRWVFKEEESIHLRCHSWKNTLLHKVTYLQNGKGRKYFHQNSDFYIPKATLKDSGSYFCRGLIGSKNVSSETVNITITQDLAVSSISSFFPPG

KD fold (SG1 = 1) [fold] | Binder
0.35 | B1
0.33 | B2
0.55 | B3
0.24 | B4

Target: T5, human FcγRIIaH extracellular domain, …
Experiment: SPR (Biacore), KD of SG1 / KD of variant

KD fold (SG1 = 1) [fold] | Binder
3.5 | B1
3.7 | B2
6.3 | B3
0.6 | B4

Target: T6, human FcγRIIaR extracellular domain, …
Experiment: SPR (Biacore), KD of SG1 / KD of variant

KD fold (SG1 = 1) [fold] | Binder
2.4 | B1
2.9 | B2
6.5 | B3
0.8 | B4

Target: T8, human FcγRIIIaV extracellular domain, C-terminal His-tag (human, UniProt P08637 17-208)
T8 construct: also called FcgRIIIaV; not shown: His-tag added to C-terminus
Experiment: SPR (Biacore), KD of SG1 / KD of variant

T8 sequence (P08637 17-208 F176V): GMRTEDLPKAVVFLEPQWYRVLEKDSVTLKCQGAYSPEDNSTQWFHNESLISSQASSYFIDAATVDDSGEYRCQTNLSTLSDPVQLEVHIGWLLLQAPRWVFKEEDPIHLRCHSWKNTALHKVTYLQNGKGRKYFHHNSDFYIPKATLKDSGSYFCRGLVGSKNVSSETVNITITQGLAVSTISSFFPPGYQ

KD fold (SG1 = 1) [fold] | Binder
0.11 | B1
0.74 | B2
0.29 | B3
0.05 | B4
